According to the supplement of paper PMC10126150:
± gives the standard deviation of the averaged measurements.
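Also: ATP exposure 15 min at 22 °C before imaging.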

The sequences below were run on ATP (assay: switch fluorescence ratio, 500 uM ATP over buffer (Cy3 cluster intensity, sum of 5 cycles each) (fold (ratio)); higher = stronger signal-on switching upon ATP binding; sequences stand for … in TCGTCGGCAGCGTCAGATGTGTATAAGAGACAGTTTTTTTTTTTTTTTTTTTTTTTTT…TC). Settings: aptamer strand: ATP DNA aptamer (quencher-CACCTGGGGGAGTATTGCGGAGGAAGG + anchor), 100 nM annealed; ATP concentration: 500 uM.
Outline: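 Between each of five buffer/ATP cycles, the flow-cell was stripped with NaOH and re-annealed. Each cycle imaged Cy3-labelled switching-strand clusters, annealed to 100 nM quencher-labelled ATP aptamer on a modified Illumina MiSeq flow-cell, first in selection buffer and then after 15 min with 500 uM ATP at 22 °C. The fluorescence ratio is summed target-cycle over summed buffer-cycle Cy3 intensity per cluster, averaged per switch-domain sequence, with clusters outside 100-1000 RFU excluded.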
ATTCGAGGGG was tested, and the switch fluorescence ratio was 1.03 ± 0.061. Sequence CCAAGTGTAT has a switch fluorescence ratio of 1.02 ± 0.055. For GATGGTTGGG, the switch fluorescence ratio was 0.998 ± 0.029. In the case of GAAAAAGGGA, the switch fluorescence ratio is reported as 0.979 ± 0.026. For TTTTCCGGGT, the switch fluorescence ratio was 1.02 ± 0.032. Work on GCGTTTTTCA yielded a switch fluorescence ratio of 0.9801 ± 0.0094. Sequence TGTCAGAAAT has a switch fluorescence ratio of 0.992 ± 0.02. GGCGGGCATG gave a switch fluorescence ratio of 1.021 ± 0.0011. Work on AGAGTTTTTT yielded a switch fluorescence ratio of 0.998 ± 0.018. In the case of AGGAGCAGCG, the switch fluorescence ratio is reported as 0.919 ± 0.03. Work on CGGTGTTGTT yielded a switch fluorescence ratio of 1.018 ± 0.0014. In the case of ACGTTTTGTG, the switch fluorescence ratio is reported as 0.96 ± 0.028. Work on AGCAGGGACT yielded a switch fluorescence ratio of 1.051 ± 0.0077. For TTGAGATTTG, the switch fluorescence ratio was 1.01 ± 0.013. CCTGCAGAGC showed a switch fluorescence ratio of 1.28 ± 0.058. For ATCTCCGGGG, the switch fluorescence ratio was 1.04 ± 0.016. CGGAATTTGG was tested, and the switch fluorescence ratio was 1.02 ± 0.041. For ACGGGGCTTT, the switch fluorescence ratio was 1.05 ± 0.024. ACGGGTCCGT gave a switch fluorescence ratio of 0.986 ± 0.011. ATTGTTTGTT was tested, and the switch fluorescence ratio was 1.01 ± 0.016. AGGCTTAGG showed a switch fluorescence ratio of 0.957 ± 0.0032. CCGGGGGGCC was tested, and the switch fluorescence ratio was 1.08 ± 0.038. TAGCGAAGTG was tested, and the switch fluorescence ratio was 0.929 ± 0.061. GTTGGGGGCG showed a switch fluorescence ratio of 0.991 ± 0.052. TGGTGGCCCT was tested, and the switch fluorescence ratio was 1.01 ± 0.06. Work on GGGGCCACTG yielded a switch fluorescence ratio of 1.02 ± 0.023. Work on TACCGCGGGG yielded a switch fluorescence ratio of 1.04 ± 0.043. For CTGTTCATGG, the switch fluorescence ratio was 1.02 ± 0.019. With CGTCAGGGGG the switch fluorescence ratio was 0.972 ± 0.027. For TAAATCGGTG, the switch fluorescence ratio was 0.977 ± 0.039. With GGGCGCCATA the switch fluorescence ratio was 0.948 ± 0.015. TGAGCCCACG gave a switch fluorescence ratio of 1.027 ± 0.0039. Work on TGGTTAACAG yielded a switch fluorescence ratio of 0.999 ± 0.022. Sequence CTAGGCTAAT has a switch fluorescence ratio of 1.014 ± 0.01. GGTTGGTGCA gave a switch fluorescence ratio of 1.02 ± 0.013. Work on ATTTGTTGCG yielded a switch fluorescence ratio of 0.999 ± 0.017. Sequence AGTAAAAAAG has a switch fluorescence ratio of 1.042 ± 0.0073. GTAGAAGGGA gave a switch fluorescence ratio of 1.01 ± 0.025. Sequence AGTAGATTAA has a switch fluorescence ratio of 0.986 ± 0.011. GTTCGTCTTT gave a switch fluorescence ratio of 1 ± 0.013. CAGTTTGTTG was tested, and the switch fluorescence ratio was 0.973 ± 0.037. With TTTTTTACAT the switch fluorescence ratio was 1.01 ± 0.018. GCATAGGGAT gave a switch fluorescence ratio of 0.988 ± 0.022. Sequence ATTGTTAGGG has a switch fluorescence ratio of 0.985 ± 0.019. With GGGGGTGCAG the switch fluorescence ratio was 0.975 ± 0.011. Work on TAAGGGGAAG yielded a switch fluorescence ratio of 1.04 ± 0.015. Sequence GACATCAGAG has a switch fluorescence ratio of 1.02 ± 0.053. For CGTGGTATGG, the switch fluorescence ratio was 0.9976 ± 0.003. In the case of GATTGTGAT, the switch fluorescence ratio is reported as 1.01 ± 0.04. With GCTGTACGAT the switch fluorescence ratio was 1.16 ± 0.012. TATGTTTCAG was tested, and the switch fluorescence ratio was 0.972 ± 0.038. TTTTAAAAGA was tested, and the switch fluorescence ratio was 0.995 ± 0.027. GGTTGCGGGT showed a switch fluorescence ratio of 0.9874 ± 0.0056. CTGGGGTTGG was tested, and the switch fluorescence ratio was 0.968 ± 0.012. Sequence CAGGCAGTTT has a switch fluorescence ratio of 1.01 ± 0.016. Work on GAATGGTTGT yielded a switch fluorescence ratio of 1.02 ± 0.023. In the case of TTTTCCCTAT, the switch fluorescence ratio is reported as 1.41 ± 0.71. In the case of ATTTACGGGG, the switch fluorescence ratio is reported as 1.04 ± 0.0031. Work on AAACTGGATG yielded a switch fluorescence ratio of 0.9783 ± 0.0039. AGGCGGTAGC showed a switch fluorescence ratio of 1.02 ± 0.0037. TCTGAAATTT was tested, and the switch fluorescence ratio was 0.9727 ± 0.0067. CGGTATTTGC gave a switch fluorescence ratio of 0.979 ± 0.0099. In the case of GCTCGTAAGT, the switch fluorescence ratio is reported as 1.01 ± 0.0049. GCAAGATCGC gave a switch fluorescence ratio of 1.09 ± 0.02. TTAATTTTGG was tested, and the switch fluorescence ratio was 1.02 ± 0.012. Work on TGAAGTGAAC yielded a switch fluorescence ratio of 1.17 ± 0.22. With GGGTTCAGGT the switch fluorescence ratio was 1.0068 ± 0.00055. For GCTTGGTGCA, the switch fluorescence ratio was 0.997 ± 0.031. CGCGTCAGCC was tested, and the switch fluorescence ratio was 0.979 ± 0.073. Sequence ATAAAGGTCG has a switch fluorescence ratio of 1.06 ± 0.1. Work on TAGTTTGTTT yielded a switch fluorescence ratio of 1.02 ± 0.074. For GGTGGGGAGT, the switch fluorescence ratio was 1.01 ± 0.021. ATGGCGGCGT gave a switch fluorescence ratio of 0.959 ± 0.035. Work on GCATAATGGG yielded a switch fluorescence ratio of 1.008 ± 0.0057. Work on TACGAGTGCG yielded a switch fluorescence ratio of 1.04 ± 0.06. For TGCTATGGGG, the switch fluorescence ratio was 1 ± 0.016. With TATAAGACTT the switch fluorescence ratio was 1.01 ± 0.035. Sequence ATTTTGTGTT has a switch fluorescence ratio of 0.988 ± 0.022. GACTTGATTA was tested, and the switch fluorescence ratio was 0.9719 ± 0.0062. TTGTAAAA showed a switch fluorescence ratio of 0.95579 ± 0.00088. AGGGAGCGGT showed a switch fluorescence ratio of 1.026 ± 0.0063. In the case of TGTAGTGAGT, the switch fluorescence ratio is reported as 0.959 ± 0.037. ATAGTGGGGT showed a switch fluorescence ratio of 0.987 ± 0.021. Sequence TTTGTGCCTC has a switch fluorescence ratio of 0.9528 ± 0.0093. With GGATTAGCAG the switch fluorescence ratio was 1.034 ± 0.0075. For CACTTTCATG, the switch fluorescence ratio was 1.013 ± 0.0021. Sequence ATACGGGGGG has a switch fluorescence ratio of 0.989 ± 0.017. AGTTTGGGGA was tested, and the switch fluorescence ratio was 0.979 ± 0.015. In the case of TTTTGCCATG, the switch fluorescence ratio is reported as 1.04 ± 0.067. For GCTTATCGGT, the switch fluorescence ratio was 0.996 ± 0.018. With TGCATAACGT the switch fluorescence ratio was 1.02 ± 0.024. Sequence TTAATTAAAA has a switch fluorescence ratio of 0.962 ± 0.043. For TTTTACCGAG, the switch fluorescence ratio was 1.047 ± 0.0032. In the case of CAAGGTCAGA, the switch fluorescence ratio is reported as 1.018 ± 0.01. With TGGCGAAGGA the switch fluorescence ratio was 1.018 ± 0.0019. Sequence ATTCCGTATA has a switch fluorescence ratio of 1.25 ± 0.022. AGGAGGGGAT gave a switch fluorescence ratio of 1.02 ± 0.045. Work on TAACGGGTG yielded a switch fluorescence ratio of 1.08 ± 0.018. AATTAGACGA was tested, and the switch fluorescence ratio was 0.958 ± 0.034. With GTGTCAAGTA the switch fluorescence ratio was 0.961 ± 0.016. For GCAGTCACAG, the switch fluorescence ratio was 1.03 ± 0.029. TGTGGGGGTC showed a switch fluorescence ratio of 0.965 ± 0.042. With AACAGGGGTG the switch fluorescence ratio was 1.09 ± 0.015. Work on TTTGCATGCC yielded a switch fluorescence ratio of 1.05 ± 0.085. Work on GAGGGTGCAT yielded a switch fluorescence ratio of 0.987 ± 0.043. For ATAGGTATTC, the switch fluorescence ratio was 0.976 ± 0.026. TTTGCCCCGG gave a switch fluorescence ratio of 1.12 ± 0.12. For GTTAGTACAG, the switch fluorescence ratio was 1.01 ± 0.031. TAATTAGGGT showed a switch fluorescence ratio of 1 ± 0.025. GGGGTAGGTG was tested, and the switch fluorescence ratio was 1.08 ± 0.068. TTGTAATAGT showed a switch fluorescence ratio of 1.026 ± 0.00026. ACGCTAGGGC was tested, and the switch fluorescence ratio was 1.16 ± 0.039. In the case of CCTAGCATGG, the switch fluorescence ratio is reported as 2.05 ± 0.21. With AACATATATT the switch fluorescence ratio was 1.02 ± 0.028. TTGGGACAAT gave a switch fluorescence ratio of 1.04 ± 0.044. AGGTTATAGG showed a switch fluorescence ratio of 1.05 ± 0.091. ATAAGCGAAG showed a switch fluorescence ratio of 0.993 ± 0.028. Work on CTCGGTTAGG yielded a switch fluorescence ratio of 0.9819 ± 0.0095. Sequence GTAGGACTGC has a switch fluorescence ratio of 1.01 ± 0.021. With ATGTGGTTGT the switch fluorescence ratio was 0.97 ± 0.019. TTTATTTATG showed a switch fluorescence ratio of 1.007 ± 0.0065. GCCCAGACGG showed a switch fluorescence ratio of 1.31 ± 0.41. TTTCTTGTAT was tested, and the switch fluorescence ratio was 1.02 ± 0.016. Sequence CGTAAAATCG has a switch fluorescence ratio of 0.995 ± 0.042. In the case of GCTCTGTCGG, the switch fluorescence ratio is reported as 1.02 ± 0.012. CTCATGGGGA gave a switch fluorescence ratio of 1.04 ± 0.075. ATCTAGTACG showed a switch fluorescence ratio of 1.02 ± 0.044. GGGCTGGGGT was tested, and the switch fluorescence ratio was 0.997 ± 0.038. Sequence GATTCAGGAG has a switch fluorescence ratio of 1 ± 0.032. With TAAATAGTTT the switch fluorescence ratio was 0.993 ± 0.013. GTTGAACTTT showed a switch fluorescence ratio of 1.02 ± 0.046. Work on AGAAAGTTTT yielded a switch fluorescence ratio of 0.993 ± 0.025. GGCGGTATGG gave a switch fluorescence ratio of 1.01 ± 0.026. For GCCTAGGGTT, the switch fluorescence ratio was 1 ± 0.023. Sequence CAGGGAGCCT has a switch fluorescence ratio of 0.988 ± 0.05. In the case of TTATGGTGCT, the switch fluorescence ratio is reported as 0.945 ± 0.051. For AATTCAGCAT, the switch fluorescence ratio was 1.03 ± 0.036. Sequence GGGGTGGCCA has a switch fluorescence ratio of 0.99 ± 0.0098. GATCTGGCGG gave a switch fluorescence ratio of 1.01 ± 0.034. TCTAAAGTGT gave a switch fluorescence ratio of 0.983 ± 0.0088. CGGATGGAGT was tested, and the switch fluorescence ratio was 0.99128 ± 1.1e-05. TCGACCGGGG showed a switch fluorescence ratio of 1.039 ± 0.0098. For GACAGCCGGT, the switch fluorescence ratio was 1.01 ± 0.029. AAGCTAGGGA was tested, and the switch fluorescence ratio was 1.01 ± 0.05. Work on GATGGTTGTC yielded a switch fluorescence ratio of 1 ± 0.055. CGCAGGGGGA gave a switch fluorescence ratio of 1.033 ± 0.008. TGATTTAGTT gave a switch fluorescence ratio of 0.989 ± 0.02. For TCGTTAATGG, the switch fluorescence ratio was 1.004 ± 0.0049. With AAACGTATGT the switch fluorescence ratio was 0.9984 ± 0.0079. ATCCTTGTTG showed a switch fluorescence ratio of 0.965 ± 0.027. With ACGTTGCAGC the switch fluorescence ratio was 1.047 ± 0.006. GTGTGGATCA gave a switch fluorescence ratio of 0.9867 ± 0.0093. Work on TAAGTTCTAA yielded a switch fluorescence ratio of 0.979 ± 0.018. ATGAGGGTGC showed a switch fluorescence ratio of 0.994 ± 0.054. Sequence ATCGACGTGT has a switch fluorescence ratio of 1.02 ± 0.02. Work on AGTCGCCTTT yielded a switch fluorescence ratio of 1.02 ± 0.056. ATGGCTGGGC gave a switch fluorescence ratio of 1.005 ± 0.0042.
